# Reference: patent US6645498
# What was measured:
# [1] = molecular target: bovine serum albumin (bovine) (UniProt P02769); experiment: ELISA, BSA coated at 5 µg/ml, antibody at 10 µg/ml
# [2] = molecular target: secreted recombinant GA733-2E antigen (human) (UniProt P16422); experiment: ELISA, antigen coated at 5 µg/ml, antibody at 10 µg/ml
# [3] = molecular target: native GA733-2 antigen (human) (UniProt P16422); experiment: as above
# Chain of UniProt P02769 (P02769 25-607 limits assumed): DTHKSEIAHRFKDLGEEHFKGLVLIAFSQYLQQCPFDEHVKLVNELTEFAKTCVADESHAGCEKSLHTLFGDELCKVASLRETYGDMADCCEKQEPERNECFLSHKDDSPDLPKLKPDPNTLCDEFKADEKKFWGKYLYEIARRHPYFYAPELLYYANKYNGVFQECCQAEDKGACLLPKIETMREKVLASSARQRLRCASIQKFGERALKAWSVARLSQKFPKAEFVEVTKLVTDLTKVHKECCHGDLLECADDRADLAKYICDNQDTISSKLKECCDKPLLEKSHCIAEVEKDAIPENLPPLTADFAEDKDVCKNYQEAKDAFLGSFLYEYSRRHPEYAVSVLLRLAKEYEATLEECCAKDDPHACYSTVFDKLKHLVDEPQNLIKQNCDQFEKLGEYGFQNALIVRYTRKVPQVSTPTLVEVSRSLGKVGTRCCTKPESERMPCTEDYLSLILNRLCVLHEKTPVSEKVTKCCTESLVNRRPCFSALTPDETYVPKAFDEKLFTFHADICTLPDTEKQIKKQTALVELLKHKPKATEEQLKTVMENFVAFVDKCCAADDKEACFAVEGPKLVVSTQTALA
Substance,Maximal optical density (at 405 nm) [1],Maximal optical density (at 405 nm) [2],Maximal optical density (at 405 nm) [3]
Normal mouse IgG (antibody),0 OD 405 nm,0 OD 405 nm,0 OD 405 nm
murine mAb GA733 (antibody),0.02 OD 405 nm,1.3 OD 405 nm,0.86 OD 405 nm
